The Human Domainome abundance scans (Beltran et al. 2025)
± gives the uncertainty stated by the source.

B1: Homeobox protein SIX3, residues 212 to 262; numbered along this chain, O95343 (parent)
chain: CFKERTRSLLREWYLQDPYPNPSKKRELAQATGLTPTQVGNWFKNRRQRDR

Variants of: B1
Assay: abundance fitness (aPCA) (normalised: wild type 0, dead -1); higher = more abundant; growth selection in yeast, the domain comes from the species named
Settings: Homo sapiens

Variant	abundance fitness
CFKERTRSLLREWYLQDPYPNPSKKRELTQATGLTPTQVGNWFKNRRQRDR [A29T]	-0.76 ± 0.26
CFKERTRSLLREWYLQDPYPNPSKKRELDQATGLTPTQVGNWFKNRRQRDR [A29D]	-0.93 ± 0.41
CFKERTRSLLREWYLQDPYPNPSKKRELGQATGLTPTQVGNWFKNRRQRDR [A29G]	-0.468 ± 0.065
CFKERTRSLLREWYLQDPYPNPSKKRELMQATGLTPTQVGNWFKNRRQRDR [A29M]	-1.03 ± 0.19
CFKERTRSLLREWYLQDPYPNPSKKRELHQATGLTPTQVGNWFKNRRQRDR [A29H]	-0.777 ± 0.34
CFKERTRSLLREWYLQDPYPNPSKKRELKQATGLTPTQVGNWFKNRRQRDR [A29K]	-0.856 ± 0.24
CFKERTRSLLREWYLQDPYPNPSKKRELLQATGLTPTQVGNWFKNRRQRDR [A29L]	-0.911 ± 0.18
CFKERTRSLLREWYLQDPYPNPSKKRELWQATGLTPTQVGNWFKNRRQRDR [A29W]	-0.704 ± 0.16
CFKERTRSLLREWYLQDPYPNPSKKRELCQATGLTPTQVGNWFKNRRQRDR [A29C]	-0.588 ± 0.24
CFKERTRSLLREWYLQDPYPNPSKKRELPQATGLTPTQVGNWFKNRRQRDR [A29P]	-0.911 ± 0.25
CFKERTRSLLREWYLQDPYPNPSKKRELRQATGLTPTQVGNWFKNRRQRDR [A29R]	-1.11 ± 0.19
CFKERTRSLLREWYLQDPYPNPSKKRELQQATGLTPTQVGNWFKNRRQRDR [A29Q]	-0.897 ± 0.37
CFKERTRSLLREWYLQDPYPNPSKKRELEQATGLTPTQVGNWFKNRRQRDR [A29E]	-0.888 ± 0.16
CFKERTRSLLREWYLQDPYPNPSKKRVLAQATGLTPTQVGNWFKNRRQRDR [E27V]	-0.593 ± 0.095
CFKERTRSLLREWYLQDPYPNPSKKRNLAQATGLTPTQVGNWFKNRRQRDR [E27N]	-0.947 ± 0.39
CFKERTRSLLREWYLQDPYPNPSKKRRLAQATGLTPTQVGNWFKNRRQRDR [E27R]	-0.573 ± 0.078
CFKERTRSLLREWYLQDPYPNPSKKRTLAQATGLTPTQVGNWFKNRRQRDR [E27T]	-0.668 ± 0.2
CFKERTRSLLREWYLQDPYPNPSKKRSLAQATGLTPTQVGNWFKNRRQRDR [E27S]	-0.322 ± 0.079
CFKERTRSLLREWYLQDPYPNPSKKRILAQATGLTPTQVGNWFKNRRQRDR [E27I]	-0.486 ± 0.22
CFKERTRSLLREWYLQDPYPNPSKKRQLAQATGLTPTQVGNWFKNRRQRDR [E27Q]	-0.357 ± 0.16
CFKERTRSLLREWYLQDPYPNPSKKRWLAQATGLTPTQVGNWFKNRRQRDR [E27W]	-0.678 ± 0.083
CFKERTRSLLREWYLQDPYPNPSKKRMLAQATGLTPTQVGNWFKNRRQRDR [E27M]	-0.373 ± 0.07
CFKERTRSLLREWYLQDPYPNPSKKRLLAQATGLTPTQVGNWFKNRRQRDR [E27L]	-0.515 ± 0.079
CFKERTRSLLREWYLQDPYPNPSKKRDLAQATGLTPTQVGNWFKNRRQRDR [E27D]	-0.253 ± 0.16
CFKERTRSLLREWYLQDPYPNPSKKRFLAQATGLTPTQVGNWFKNRRQRDR [E27F]	-0.276 ± 0.049
CFKERTRSLLREWYLQDPYPNPSKKRHLAQATGLTPTQVGNWFKNRRQRDR [E27H]	-0.446 ± 0.3

Variant	abundance fitness
CFKERTRSLLREWYLQDPYPNPSKKRKLAQATGLTPTQVGNWFKNRRQRDR [E27K]	0.121 ± 0.1
CFKERTRSLLREWYLQDPYPNPSKKRALAQATGLTPTQVGNWFKNRRQRDR [E27A]	-0.55 ± 0.09
CFKERTRSLLREWYLQDPYPNPSKKRCLAQATGLTPTQVGNWFKNRRQRDR [E27C]	-0.819 ± 0.2
CFKERTRSLLREWYLQDPYPNPSKKRPLAQATGLTPTQVGNWFKNRRQRDR [E27P]	-0.785 ± 0.18
CFKERTRSLLREWYLQDPYPNPSKKRESAQATGLTPTQVGNWFKNRRQRDR [L28S]	-0.833 ± 0.11
CFKERTRSLLREWYLQDPYPNPSKKREFAQATGLTPTQVGNWFKNRRQRDR [L28F]	-0.07 ± 0.067
CFKERTRSLLREWYLQDPYPNPSKKREIAQATGLTPTQVGNWFKNRRQRDR [L28I]	-0.162 ± 0.14
CFKERTRSLLREWYLQDPYPNPSKKREAAQATGLTPTQVGNWFKNRRQRDR [L28A]	-1.05 ± 0.27
CFKERTRSLLREWYLQDPYPNPSKKRETAQATGLTPTQVGNWFKNRRQRDR [L28T]	-0.876 ± 0.24
CFKERTRSLLREWYLQDPYPNPSKKRERAQATGLTPTQVGNWFKNRRQRDR [L28R]	-0.895 ± 0.091
CFKERTRSLLREWYLQDPYPNPSKKREEAQATGLTPTQVGNWFKNRRQRDR [L28E]	-1.04 ± 0.28
CFKERTRSLLREWYLQDPYPNPSKKREWAQATGLTPTQVGNWFKNRRQRDR [L28W]	-0.572 ± 0.056
CFKERTRSLLREWYLQDPYPNPSKKREKAQATGLTPTQVGNWFKNRRQRDR [L28K]	-0.668 ± 0.095
CFKERTRSLLREWYLQDPYPNPSKKREMAQATGLTPTQVGNWFKNRRQRDR [L28M]	0.029 ± 0.054
CFKERTRSLLREWYLQDPYPNPSKKREYAQATGLTPTQVGNWFKNRRQRDR [L28Y]	0.069 ± 0.095
CFKERTRSLLREWYLQDPYPNPSKKRECAQATGLTPTQVGNWFKNRRQRDR [L28C]	-0.59 ± 0.045
CFKERTRSLLREWYLQDPYPNPSKKREHAQATGLTPTQVGNWFKNRRQRDR [L28H]	-0.778 ± 0.26
CFKERTRSLLREWYLQDPYPNPSKKREDAQATGLTPTQVGNWFKNRRQRDR [L28D]	-0.805 ± 0.22
CFKERTRSLLREWYLQDPYPNPSKKRENAQATGLTPTQVGNWFKNRRQRDR [L28N]	-0.99 ± 0.16
CFKERTRSLLREWYLQDPYPNPSKKREQAQATGLTPTQVGNWFKNRRQRDR [L28Q]	-0.872 ± 0.11
CFKERTRSLLREWYLQDPYPNPSKKREVAQATGLTPTQVGNWFKNRRQRDR [L28V]	-0.147 ± 0.079
CFKERTRSLLREWYLQDPYPNPSKKRELAAATGLTPTQVGNWFKNRRQRDR [Q30A]	-0.19 ± 0.059
CFKERTRSLLREWYLQDPYPNPSKKRELADATGLTPTQVGNWFKNRRQRDR [Q30D]	0.037 ± 0.084
CFKERTRSLLREWYLQDPYPNPSKKRELAEATGLTPTQVGNWFKNRRQRDR [Q30E]	-0.068 ± 0.094
CFKERTRSLLREWYLQDPYPNPSKKRELACATGLTPTQVGNWFKNRRQRDR [Q30C]	-0.243 ± 0.039
